Test results published in the Human Domainome abundance scans (Beltran et al. 2025).
± gives the uncertainty stated by the source.

B1: Cullin-9, residues 2234 to 2275; numbered along this chain, Q8IWT3 (parent)
chain: KRCPSCQAPIEKNEGCLHMTCAKCNHGFCWRCLKSWKPNHKD

Variants of: B1
Experiment: abundance fitness (aPCA) (normalised: wild type 0, dead -1); higher = more abundant; growth selection in yeast, the domain comes from the species named
Conditions: Homo sapiens

Abundance fitness of substitutions, site by site:
H40: K -0.319 ± 0.15, F -0.089 ± 0.35
N13: F -0.36 ± 0.17, R -0.034 ± 0.075, I 0.493 ± 0.18, Y -0.244 ± 0.16, D -0.209 ± 0.13, Q -0.044 ± 0.097, G -0.059 ± 0.07, S -0.096 ± 0.1, V 0.051 ± 0.085, A -0.071 ± 0.074, K 0.117 ± 0.11, M -0.023 ± 0.097
L17: Y 0.383 ± 0.29, W -0.169 ± 0.099, C -0.209 ± 0.25, T -0.236 ± 0.12, A -0.053 ± 0.079, I -0.267 ± 0.2
R2: V -0.2 ± 0.094, E 0.175 ± 0.1, L 0.227 ± 0.089, M 0.559 ± 0.11, H 0.104 ± 0.35, K 0.123 ± 0.1, A 0.084 ± 0.096
S35: V -0.132 ± 0.079, F 0.187 ± 0.17, P 0.446 ± 0.14, E 0.17 ± 0.084, N -0.092 ± 0.33, Q 0.068 ± 0.12, K -0.155 ± 0.12, Y -0.463 ± 0.23, C -0.195 ± 0.14, H -0.373 ± 0.24
M19: K 0.003 ± 0.13, F -0.48 ± 0.22, T 0.182 ± 0.11, C -0.012 ± 0.13, W -0.223 ± 0.1, G -0.22 ± 0.074, L -0.034 ± 0.092, Q -0.019 ± 0.12, Y -0.803 ± 0.46, A -0.048 ± 0.095, R -0.28 ± 0.08
E14: T -0.12 ± 0.15, K -0.473 ± 0.17, A -0.001 ± 0.087, D -0.084 ± 0.16, M 0.121 ± 0.23, S -0.047 ± 0.1, F -0.492 ± 0.2, L -0.411 ± 0.12, C -0.001 ± 0.13, G -0.071 ± 0.087
Q7: I -0.346 ± 0.34, S -0.406 ± 0.17, P -0.18 ± 0.12, E 0.089 ± 0.11, G 0.258 ± 0.079, C -0.025 ± 0.11
K41: W -0.646 ± 0.15, E 0.281 ± 0.096, R -0.128 ± 0.094, M -0.373 ± 0.23, S -0.038 ± 0.12, A 0.047 ± 0.081, H 0.256 ± 0.21, L -0.295 ± 0.12
E11: P -0.309 ± 0.17, S -0.41 ± 0.12, K -0.27 ± 0.12, V -0.408 ± 0.1, L -0.318 ± 0.095, Y 0.319 ± 0.45, M -0.383 ± 0.13
C3: Q -1.07 ± 0.14, W -1.4 ± 0.18, S -0.303 ± 0.092, P -0.945 ± 0.13, E -0.474 ± 0.17, I 0.698 ± 0.13, D -0.018 ± 0.13, V -0.348 ± 0.092, H -0.249 ± 0.15, A -1.03 ± 0.12, Y -0.342 ± 0.16, G -0.485 ± 0.08, R -0.751 ± 0.089, K -0.658 ± 0.13
K12: P 0.057 ± 0.081, F -0.469 ± 0.38
N25: C 0.126 ± 0.12, W -0.44 ± 0.12, E -0.045 ± 0.087, S 0.03 ± 0.1, R -0.25 ± 0.081, V -0.265 ± 0.088, A -0.127 ± 0.091, G 0.208 ± 0.077, I -0.121 ± 0.22
C24: F -0.534 ± 0.21, D -0.045 ± 0.14, T -0.735 ± 0.19, H -0.382 ± 0.33, P -0.249 ± 0.1, G -0.268 ± 0.074
W36: Y -0.17 ± 0.24, L 0.205 ± 0.093, K 0.13 ± 0.13, D 0.255 ± 0.12, Q 0.082 ± 0.13, R -0.25 ± 0.079, V 0.304 ± 0.074, C -0.391 ± 0.18
G15: E 0.045 ± 0.097, C -0.113 ± 0.33, T -0.698 ± 0.17, A -0.003 ± 0.1
D42: G -0.21 ± 0.11, W -0.692 ± 0.26, F -0.729 ± 0.24, T -0.073 ± 0.14, C 0.214 ± 0.12, M -0.77 ± 0.37, L -0.444 ± 0.15, A -0.117 ± 0.12
L33: D -0.235 ± 0.13, S -0.623 ± 0.11, V -0.414 ± 0.086, P -0.464 ± 0.12, Q -0.125 ± 0.099, F -0.451 ± 0.15, M -0.096 ± 0.1
K37: T 0.117 ± 0.1, I -0.039 ± 0.14, Y -0.059 ± 0.15, G 0.125 ± 0.071, M -0.261 ± 0.12, R -0.156 ± 0.078, P -0.056 ± 0.094, W -0.168 ± 0.098
C32: W -0.744 ± 0.12, S -0.747 ± 0.1, H -1.17 ± 0.22, D -0.199 ± 0.11, P -0.959 ± 0.14, G -0.668 ± 0.081, T -0.485 ± 0.15, Q -0.726 ± 0.12
S5: L -0.121 ± 0.081, H -0.336 ± 0.32, C 0.137 ± 0.1, G 0.56 ± 0.07, K 0.489 ± 0.11, I -0.142 ± 0.23, W 0.313 ± 0.085, P -0.401 ± 0.1
G27: Q 0.439 ± 0.13, W -0.005 ± 0.11, R 0.159 ± 0.074, D 0.193 ± 0.14, M -0.264 ± 0.18, C 0.036 ± 0.12
